Test results reported in paper PMC3214623.

Columns and labels:
[1] = target: human beta-2 microglobulin (human) (UniProt P61769); assay: radioligand binding
[2] = target: porcine beta-2 microglobulin (pig) (UniProt Q07717); assay: radioligand binding
Chain of UniProt Q07717 (Q07717 21-118): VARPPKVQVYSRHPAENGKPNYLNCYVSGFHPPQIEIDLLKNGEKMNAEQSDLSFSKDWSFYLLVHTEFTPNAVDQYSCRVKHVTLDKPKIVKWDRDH

Chain of UniProt P61769 (P61769 21-119): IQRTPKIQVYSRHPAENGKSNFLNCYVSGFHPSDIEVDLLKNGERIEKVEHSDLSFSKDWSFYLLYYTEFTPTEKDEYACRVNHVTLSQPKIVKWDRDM

Q: “HLA-A*11:01 heavy chain, residues 1-275 (HHH) (domain or fragment)” was tested. Which affinity (half-saturation of the heavy chain titration) [1] did it give?
A: Its affinity (half-saturation of the heavy chain titration) is 1.07 nM.

Q: And the affinity (half-saturation of the heavy chain titration) [2]?
A: The affinity (half-saturation of the heavy chain titration) was 2.11 nM.

Q: For “chimeric MHC-I heavy chain HHP (HLA-A*11:01 α1α2, SLA-1*0401 α3) (domain or fragment)”, which affinity (half-saturation of the heavy chain titration) [1] is on record?
A: Its affinity (half-saturation of the heavy chain titration) is 1.19 nM.

Q: And the affinity (half-saturation of the heavy chain titration) [2]?
A: Its affinity (half-saturation of the heavy chain titration) is 0.774 nM.
